Ends that are not written are not given here. * marks the point of attachment. NHCH2CH2(5-OH-indol-3-yl) = Oc1ccc2[nH]cc(CCN*)c2c1
Molecular target: full length recombinant WDR5 (human, UniProt P61964 1-334)
Experiment: pull-down

Binder | binding result
ARTKQTARKS (also: biotinylated, position not given here) [biotinylated H3 (1-10) unmodified peptide] | binds
ARTKQ(NHCH2CH2(5-OH-indol-3-yl))TARKS (also: biotinylated, position not given here) [biotinylated H3 (1-10) Q5ser peptide] | binds
